From publication PMC10171807 (Science Advances, 2023) come the findings set out here.

The target in series [1] is _(MPPΔ3)Skd3_WB (MPP-cleaved Skd3 without the C-terminal hydrophobic residues of the inhibitory sequence, with E455Q) (human). Briefly: mass photometry.
Series [2] has the same target. Nature of the series: mass photometry. The source holds these as a separate data set.
Series [3] addresses FITC-casein (UniProt P02662). Nature of the series: fluorescence polarisation. Background: Polarisation of emitted light reports the rotation of a fluorescent probe.
Series [4] concerns the target FITC-casein (UniProt P02662). Briefly: fluorescence polarisation. This is another data set of the same source.
Series [5] deals with the molecule itself. Briefly: electron microscopy, 2D class averages.
The series “mass photometry” deals with the molecule itself. Nature of the series: mass photometry.

Where “and” joins values, the source holds several entries; their conditions need not be identical. Equal entries are not always repeated. Where two headings read alike, the source gives them in different places.

FITC-casein, sequence (P02662 16-214): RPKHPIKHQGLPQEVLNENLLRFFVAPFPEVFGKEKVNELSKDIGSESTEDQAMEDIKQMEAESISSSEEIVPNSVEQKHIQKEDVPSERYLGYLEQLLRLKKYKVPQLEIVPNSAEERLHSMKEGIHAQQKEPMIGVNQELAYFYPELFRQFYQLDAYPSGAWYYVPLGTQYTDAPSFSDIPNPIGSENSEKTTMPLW

As to “_(MPPΔ3)Skd3_WB (MPP-cleaved Skd3 without the C-terminal hydrophobic residues of the inhibitory sequence, with E455Q) (enzyme)”, the stoichiometry N in series [1] is 6; in series [2], 12.

B1: _(PARL)Skd3_ARD (isolated ankyrin repeat domain of Skd3) (domain or fragment)
chain: VTTGSLGEPQWLRVATGGRPGTSPALFSGRGAATGGRQGGRFDTKCLAAATWGRLPGPEETLPGQDSWNGVPSRAGLGMCALAAALVVHCYSKSPSNKDAALLEAARANNMQEVSRLLSEGADVNAKHRLGWTALMVAAINRNNSVVQVLLAAGADPNLGDDFSSVYKTAKEQGIHSLEDGGQDGASRHITNQWTSALEFRRWLGLPAGVLITREDDFNNRLNNRASFKGCTALHYAVLADDYRTVKELLDGGANPLQRNEMGHTPLDYAREGEVMKLLRTSEAKYQEKQR
B1: the Kd in the series with FITC-casein [3] stood at 3.7 µM. This counts as single-digit micromolar.

B2: _(PARL)Skd3 (PARL-cleaved Skd3, human ClpB), wild type (enzyme, UniProt Q9H078 127-707, looked up)
chain: YSKSPSNKDAALLEAARANNMQEVSRLLSEGADVNAKHRLGWTALMVAAINRNNSVVQVLLAAGADPNLGDDFSSVYKTAKEQGIHSLEDGGQDGASRHITNQWTSALEFRRWLGLPAGVLITREDDFNNRLNNRASFKGCTALHYAVLADDYRTVKELLDGGANPLQRNEMGHTPLDYAREGEVMKLLRTSEAKYQEKQRKREAEERRRFPLEQRLKEHIIGQESAIATVGAAIRRKENGWYDEEHPLVFLFLGSSGIGKTELAKQTAKYMHKDAKKGFIRLDMSEFQERHEVAKFIGSPPGYVGHEEGGQLTKKLKQCPNAVVLFDEVDKAHPDVLTIMLQLFDEGRLTDGKGKTIDCKDAIFIMTSNVASDEIAQHALQLRQEALEMSRNRIAENLGDVQISDKITISKNFKENVIRPILKAHFRRDEFLGRINEIVYFLPFCHSELIQLVNKELNFWAKRAKQRHNITLLWDREVADVLVDGYNVHYGARSIKHEVERRVVNQLAAAYEQDLLPGGCTLRITVEDSDKQLLKSPELPSPQAEKRLPKLRLEIIDKDSKTRRLDIRAPLHPEKVCNTI
For B2, the equilibrium dissociation constant (Kd) with FITC-casein [4] was 860 nM; in the series with FITC-casein [3], 3.4 µM. Also, the “stoichiometry N” value in series [5] is 6 and 7.

B3: _(PARL)Skd3_WB (PARL-cleaved Skd3 with the Walker B mutation E455Q) (enzyme, human, UniProt Q9H078 127-707, looked up)
chain: YSKSPSNKDAALLEAARANNMQEVSRLLSEGADVNAKHRLGWTALMVAAINRNNSVVQVLLAAGADPNLGDDFSSVYKTAKEQGIHSLEDGGQDGASRHITNQWTSALEFRRWLGLPAGVLITREDDFNNRLNNRASFKGCTALHYAVLADDYRTVKELLDGGANPLQRNEMGHTPLDYAREGEVMKLLRTSEAKYQEKQRKREAEERRRFPLEQRLKEHIIGQESAIATVGAAIRRKENGWYDEEHPLVFLFLGSSGIGKTELAKQTAKYMHKDAKKGFIRLDMSEFQERHEVAKFIGSPPGYVGHEEGGQLTKKLKQCPNAVVLFDQVDKAHPDVLTIMLQLFDEGRLTDGKGKTIDCKDAIFIMTSNVASDEIAQHALQLRQEALEMSRNRIAENLGDVQISDKITISKNFKENVIRPILKAHFRRDEFLGRINEIVYFLPFCHSELIQLVNKELNFWAKRAKQRHNITLLWDREVADVLVDGYNVHYGARSIKHEVERRVVNQLAAAYEQDLLPGGCTLRITVEDSDKQLLKSPELPSPQAEKRLPKLRLEIIDKDSKTRRLDIRAPLHPEKVCNTI
Molecule B3 came in with a Kd with FITC-casein [3] of 3.6 µM. Further, the “stoichiometry N” value in the series “mass photometry” was determined as 6.

B4: Skd3_L1,L2GH_WB (_(PARL)Skd3 with the L1GH and L2GH turn loop mutations and E455Q) (enzyme)
chain: YSKSPSNKDAALLEAARAGHMQEVSRLLSEGADVNAKHRLGWTALMVAAINGHNSVVQVLLAAGADPNLGDDFSSVYKTAKEQGIHSLEDGGQDGASRHITNQWTSALEFRRWLGLPAGVLITREDDFNNRLNNRASFKGCTALHYAVLADDYRTVKELLDGGANPLQRNEMGHTPLDYAREGEVMKLLRTSEAKYQEKQRKREAEERRRFPLEQRLKEHIIGQESAIATVGAAIRRKENGWYDEEHPLVFLFLGSSGIGKTELAKQTAKYMHKDAKKGFIRLDMSEFQERHEVAKFIGSPPGYVGHEEGGQLTKKLKQCPNAVVLFDQVDKAHPDVLTIMLQLFDEGRLTDGKGKTIDCKDAIFIMTSNVASDEIAQHALQLRQEALEMSRNRIAENLGDVQISDKITISKNFKENVIRPILKAHFRRDEFLGRINEIVYFLPFCHSELIQLVNKELNFWAKRAKQRHNITLLWDREVADVLVDGYNVHYGARSIKHEVERRVVNQLAAAYEQDLLPGGCTLRITVEDSDKQLLKSPELPSPQAEKRLPKLRLEIIDKDSKTRRLDIRAPLHPEKVCNTI
Consider B4, for which, in the series “mass photometry”, the “ratio of dodecamer relative to hexamer” value is 0.41 ± 0.12; the “stoichiometry N” value was 6 and 12.

The term stoichiometry N denotes a count of units in the complex or per binding partner. For orientation: Kd means the concentration at which binding is half-saturated. High values mean lower affinity, low ones higher affinity.
